Measured values from patent publication US20250171562A1.

Target: mixture of three Der p 2 specific recombinant human IgE clones H10, H12, P4E (human) (UniProt P01854)
Assay: RBL-SX38 IgE displacement, FACS

Sequence of mixture of three Der p 2 specific recombinant human IgE clones H10, H12, P4E (human) (P01854 other isoform, or with tags, fused parts or gaps): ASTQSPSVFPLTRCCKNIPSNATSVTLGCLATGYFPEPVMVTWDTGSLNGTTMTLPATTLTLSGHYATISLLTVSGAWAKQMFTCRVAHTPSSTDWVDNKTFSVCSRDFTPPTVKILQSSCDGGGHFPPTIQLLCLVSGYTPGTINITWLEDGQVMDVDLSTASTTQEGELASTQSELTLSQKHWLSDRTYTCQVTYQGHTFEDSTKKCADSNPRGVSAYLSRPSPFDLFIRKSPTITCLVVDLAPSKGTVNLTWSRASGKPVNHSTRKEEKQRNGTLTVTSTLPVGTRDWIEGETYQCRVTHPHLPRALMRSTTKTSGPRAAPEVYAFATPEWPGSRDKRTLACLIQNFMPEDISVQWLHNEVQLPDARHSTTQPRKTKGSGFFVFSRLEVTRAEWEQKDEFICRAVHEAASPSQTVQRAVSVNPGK

Row | EC50 | Max effect/effect 1 µM | Binder
1 | 572 nM | 45% | CIgG4E2A1(G4S)2 (Fc fusion) chain 1: GPPCPPCPAPEFLGGPSVFLFPPKPKDTLMISRTPEVTCVVVDVSQEDPEVQFNWYVDGVEVHNAKTKPREEQFNSTYRVVSVLTVLHQDWLNGKEYKCKVSNKGLPSSIEKTISKAKGQPREPQVYTLPPCQEEMTKNQVSLWCLVKGFYPSDIAVEWESNGQPENNYKTTPPVLDSDGSFFLYSRLTVDKSRWQEGNVFSCSVMHEALHNHYTQKSLSLSLGKGGGGSGGGGSDVQLQESGGGLVQAGGSLRLSCAASGRTISRYAVGWFRRPPAKEREFIGINWSGGSTTYADSAEGRFIISRDNAKNTVYLQMNSLKPEDTAVYYCAVPSVLVQGGISNPSQYDYWGQGTQVTVS chain 2: GPPCPPCPAPEFLGGPSVFLFPPKPKDTLMISRTPEVTCVVVDVSQEDPEVQFNWYVDGVEVHNAKTKPREEQFNSTYRVVSVLTVLHQDWLNGKEYKCKVSNKGLPSSIEKTISKAKGQPREPQVCTLPPSQEEMTKNQVSLSCAVKGFYPSDIAVEWESNGQPENNYKTTPPVLDSDGSFFLVSRLTVDKSRWQEGNVFSCSVMHEALHNHYTQKSLSLSLGKGGGGSGGGGSEVQLLESGGGLVQPGGSLRLSCAASGFTFGNYDMAWVRQAPGKRPEWVSSIDTGGDITHYADSVKGRFTISRDNAKNTLYLQMNSLRPEDTAVYWCATDEEYALGPNEFDYYGQGTLVTVSS
2 | 1.9 nM | 98% | NIgG4E2A1(G4S)2 (Fc fusion) chain 1: DVQLQESGGGLVQAGGSLRLSCAASGRTISRYAVGWFRRPPAKEREFIGINWSGGSTTYADSAEGRFIISRDNAKNTVYLQMNSLKPEDTAVYYCAVPSVLVQGGISNPSQYDYWGQGTQVTVSGGGGSGGGGSGPPCPPCPAPEFLGGPSVFLFPPKPKDTLMISRTPEVTCVVVDVSQEDPEVQFNWYVDGVEVHNAKTKPREEQFNSTYRVVSVLTVLHQDWLNGKEYKCKVSNKGLPSSIEKTISKAKGQPREPQVYTLPPCQEEMTKNQVSLWCLVKGFYPSDIAVEWESNGQPENNYKTTPPVLDSDGSFFLYSRLTVDKSRWQEGNVFSCSVMHEALHNHYTQKSLSLSLGK chain 2: EVQLLESGGGLVQPGGSLRLSCAASGFTFGNYDMAWVRQAPGKRPEWVSSIDTGGDITHYADSVKGRFTISRDNAKNTLYLQMNSLRPEDTAVYWCATDEEYALGPNEFDYYGQGTLVTVSSGGGGSGGGGSGPPCPPCPAPEFLGGPSVFLFPPKPKDTLMISRTPEVTCVVVDVSQEDPEVQFNWYVDGVEVHNAKTKPREEQFNSTYRVVSVLTVLHQDWLNGKEYKCKVSNKGLPSSIEKTISKAKGQPREPQVCTLPPSQEEMTKNQVSLSCAVKGFYPSDIAVEWESNGQPENNYKTTPPVLDSDGSFFLVSRLTVDKSRWQEGNVFSCSVMHEALHNHYTQKSLSLSLGK
3 | 2 nM | 97% | NIgG4E2A1(RS) (Fc fusion) chain 1: DVQLQESGGGLVQAGGSLRLSCAASGRTISRYAVGWFRRPPAKEREFIGINWSGGSTTYADSAEGRFIISRDNAKNTVYLQMNSLKPEDTAVYYCAVPSVLVQGGISNPSQYDYWGQGTQVTVSRSGPPCPPCPAPEFLGGPSVFLFPPKPKDTLMISRTPEVTCVVVDVSQEDPEVQFNWYVDGVEVHNAKTKPREEQFNSTYRVVSVLTVLHQDWLNGKEYKCKVSNKGLPSSIEKTISKAKGQPREPQVYTLPPCQEEMTKNQVSLWCLVKGFYPSDIAVEWESNGQPENNYKTTPPVLDSDGSFFLYSRLTVDKSRWQEGNVFSCSVMHEALHNHYTQKSLSLSLGK chain 2: EVQLLESGGGLVQPGGSLRLSCAASGFTFGNYDMAWVRQAPGKRPEWVSSIDTGGDITHYADSVKGRFTISRDNAKNTLYLQMNSLRPEDTAVYWCATDEEYALGPNEFDYYGQGTLVTVSSRSGPPCPPCPAPEFLGGPSVFLFPPKPKDTLMISRTPEVTCVVVDVSQEDPEVQFNWYVDGVEVHNAKTKPREEQFNSTYRVVSVLTVLHQDWLNGKEYKCKVSNKGLPSSIEKTISKAKGQPREPQVCTLPPSQEEMTKNQVSLSCAVKGFYPSDIAVEWESNGQPENNYKTTPPVLDSDGSFFLVSRLTVDKSRWQEGNVFSCSVMHEALHNHYTQKSLSLSLGK
4 | 2.3 nM | 95% | NIgG4E2A1(G4S)1 (Fc fusion) chain 1: DVQLQESGGGLVQAGGSLRLSCAASGRTISRYAVGWFRRPPAKEREFIGINWSGGSTTYADSAEGRFIISRDNAKNTVYLQMNSLKPEDTAVYYCAVPSVLVQGGISNPSQYDYWGQGTQVTVSGGGGSGPPCPPCPAPEFLGGPSVFLFPPKPKDTLMISRTPEVTCVVVDVSQEDPEVQFNWYVDGVEVHNAKTKPREEQFNSTYRVVSVLTVLHQDWLNGKEYKCKVSNKGLPSSIEKTISKAKGQPREPQVYTLPPCQEEMTKNQVSLWCLVKGFYPSDIAVEWESNGQPENNYKTTPPVLDSDGSFFLYSRLTVDKSRWQEGNVFSCSVMHEALHNHYTQKSLSLSLGK chain 2: EVQLLESGGGLVQPGGSLRLSCAASGFTFGNYDMAWVRQAPGKRPEWVSSIDTGGDITHYADSVKGRFTISRDNAKNTLYLQMNSLRPEDTAVYWCATDEEYALGPNEFDYYGQGTLVTVSSGGGGSGPPCPPCPAPEFLGGPSVFLFPPKPKDTLMISRTPEVTCVVVDVSQEDPEVQFNWYVDGVEVHNAKTKPREEQFNSTYRVVSVLTVLHQDWLNGKEYKCKVSNKGLPSSIEKTISKAKGQPREPQVCTLPPSQEEMTKNQVSLSCAVKGFYPSDIAVEWESNGQPENNYKTTPPVLDSDGSFFLVSRLTVDKSRWQEGNVFSCSVMHEALHNHYTQKSLSLSLGK
5 |  | 22% | CIgG4E2A1(G4S)1 (Fc fusion) chain 1: GPPCPPCPAPEFLGGPSVFLFPPKPKDTLMISRTPEVTCVVVDVSQEDPEVQFNWYVDGVEVHNAKTKPREEQFNSTYRVVSVLTVLHQDWLNGKEYKCKVSNKGLPSSIEKTISKAKGQPREPQVYTLPPCQEEMTKNQVSLWCLVKGFYPSDIAVEWESNGQPENNYKTTPPVLDSDGSFFLYSRLTVDKSRWQEGNVFSCSVMHEALHNHYTQKSLSLSLGKGGGGSDVQLQESGGGLVQAGGSLRLSCAASGRTISRYAVGWFRRPPAKEREFIGINWSGGSTTYADSAEGRFIISRDNAKNTVYLQMNSLKPEDTAVYYCAVPSVLVQGGISNPSQYDYWGQGTQVTVS chain 2: GPPCPPCPAPEFLGGPSVFLFPPKPKDTLMISRTPEVTCVVVDVSQEDPEVQFNWYVDGVEVHNAKTKPREEQFNSTYRVVSVLTVLHQDWLNGKEYKCKVSNKGLPSSIEKTISKAKGQPREPQVCTLPPSQEEMTKNQVSLSCAVKGFYPSDIAVEWESNGQPENNYKTTPPVLDSDGSFFLVSRLTVDKSRWQEGNVFSCSVMHEALHNHYTQKSLSLSLGKGGGGSEVQLLESGGGLVQPGGSLRLSCAASGFTFGNYDMAWVRQAPGKRPEWVSSIDTGGDITHYADSVKGRFTISRDNAKNTLYLQMNSLRPEDTAVYWCATDEEYALGPNEFDYYGQGTLVTVSS
6 |  | 6% | CIgG4E2A1(RS) (Fc fusion) chain 1: GPPCPPCPAPEFLGGPSVFLFPPKPKDTLMISRTPEVTCVVVDVSQEDPEVQFNWYVDGVEVHNAKTKPREEQFNSTYRVVSVLTVLHQDWLNGKEYKCKVSNKGLPSSIEKTISKAKGQPREPQVYTLPPCQEEMTKNQVSLWCLVKGFYPSDIAVEWESNGQPENNYKTTPPVLDSDGSFFLYSRLTVDKSRWQEGNVFSCSVMHEALHNHYTQKSLSLSLGKRSDVQLQESGGGLVQAGGSLRLSCAASGRTISRYAVGWFRRPPAKEREFIGINWSGGSTTYADSAEGRFIISRDNAKNTVYLQMNSLKPEDTAVYYCAVPSVLVQGGISNPSQYDYWGQGTQVTVS chain 2: GPPCPPCPAPEFLGGPSVFLFPPKPKDTLMISRTPEVTCVVVDVSQEDPEVQFNWYVDGVEVHNAKTKPREEQFNSTYRVVSVLTVLHQDWLNGKEYKCKVSNKGLPSSIEKTISKAKGQPREPQVCTLPPSQEEMTKNQVSLSCAVKGFYPSDIAVEWESNGQPENNYKTTPPVLDSDGSFFLVSRLTVDKSRWQEGNVFSCSVMHEALHNHYTQKSLSLSLGKRSEVQLLESGGGLVQPGGSLRLSCAASGFTFGNYDMAWVRQAPGKRPEWVSSIDTGGDITHYADSVKGRFTISRDNAKNTLYLQMNSLRPEDTAVYWCATDEEYALGPNEFDYYGQGTLVTVSS
7 | 24.1 nM | 99% | CIgG4E1A1(G4S)3 (Fc fusion) chain 1: GPPCPPCPAPEFLGGPSVFLFPPKPKDTLMISRTPEVTCVVVDVSQEDPEVQFNWYVDGVEVHNAKTKPREEQFNSTYRVVSVLTVLHQDWLNGKEYKCKVSNKGLPSSIEKTISKAKGQPREPQVYTLPPCQEEMTKNQVSLWCLVKGFYPSDIAVEWESNGQPENNYKTTPPVLDSDGSFFLYSRLTVDKSRWQEGNVFSCSVMHEALHNHYTQKSLSLSLGKGGGGSGGGGSGGGGSDVQLQESGGGLVQAGGSLRLSCLASGRTFTTTSGYNMGWFRQAPGKEREFVAGIKWVSGSNRAYAESVKGRFTISRDNAKNTVYLQMNSLKPEDTAVYYCAAATGQSYVPIREYEYVYWGQGTQVTVS chain 2: GPPCPPCPAPEFLGGPSVFLFPPKPKDTLMISRTPEVTCVVVDVSQEDPEVQFNWYVDGVEVHNAKTKPREEQFNSTYRVVSVLTVLHQDWLNGKEYKCKVSNKGLPSSIEKTISKAKGQPREPQVCTLPPSQEEMTKNQVSLSCAVKGFYPSDIAVEWESNGQPENNYKTTPPVLDSDGSFFLVSRLTVDKSRWQEGNVFSCSVMHEALHNHYTQKSLSLSLGKGGGGSGGGGSGGGGSEVQLLESGGGLVQPGGSLRLSCAASGFTFGNYDMAWVRQAPGKRPEWVSSIDTGGDITHYADSVKGRFTISRDNAKNTLYLQMNSLRPEDTAVYWCATDEEYALGPNEFDYYGQGTLVTVSS
8 | 2 nM | 97% | NIgG4E2A1(G4S)3 (Fc fusion) chain 1: DVQLQESGGGLVQAGGSLRLSCAASGRTISRYAVGWFRRPPAKEREFIGINWSGGSTTYADSAEGRFIISRDNAKNTVYLQMNSLKPEDTAVYYCAVPSVLVQGGISNPSQYDYWGQGTQVTVSGGGGSGGGGSGGGGSGPPCPPCPAPEFLGGPSVFLFPPKPKDTLMISRTPEVTCVVVDVSQEDPEVQFNWYVDGVEVHNAKTKPREEQFNSTYRVVSVLTVLHQDWLNGKEYKCKVSNKGLPSSIEKTISKAKGQPREPQVYTLPPCQEEMTKNQVSLWCLVKGFYPSDIAVEWESNGQPENNYKTTPPVLDSDGSFFLYSRLTVDKSRWQEGNVFSCSVMHEALHNHYTQKSLSLSLGK chain 2: EVQLLESGGGLVQPGGSLRLSCAASGFTFGNYDMAWVRQAPGKRPEWVSSIDTGGDITHYADSVKGRFTISRDNAKNTLYLQMNSLRPEDTAVYWCATDEEYALGPNEFDYYGQGTLVTVSSGGGGSGGGGSGGGGSGPPCPPCPAPEFLGGPSVFLFPPKPKDTLMISRTPEVTCVVVDVSQEDPEVQFNWYVDGVEVHNAKTKPREEQFNSTYRVVSVLTVLHQDWLNGKEYKCKVSNKGLPSSIEKTISKAKGQPREPQVCTLPPSQEEMTKNQVSLSCAVKGFYPSDIAVEWESNGQPENNYKTTPPVLDSDGSFFLVSRLTVDKSRWQEGNVFSCSVMHEALHNHYTQKSLSLSLGK
